From doi:10.1101/2025.10.13.682103
Where “and” joins values, the source holds several entries; their conditions need not be identical. Equal entries are not always repeated.

How the values were obtained:
[1] = molecular target: Mycoplasma penetrans methionyl-tRNA synthetase, full length, M568A (Mycoplasma penetrans); test: PAGE analysis
[2] = molecular target: Mycoplasma penetrans methionyl-tRNA synthetase, full length, M568A (Mycoplasma penetrans); test: cryo-EM structure
[3] = molecular target: Mycoplasma penetrans methionyl-tRNA synthetase, full length, M568A (Mycoplasma penetrans); test: cryo-EM structure; remark: listed apart in the source

stoichiometry N [1]: 2
stoichiometry N [2]: 4 and 6
stoichiometry N [3]: 2
Substance: Mycoplasma penetrans methionyl-tRNA synthetase, full length, M568A (enzyme)
